The target in one test is SARS-CoV-2 WT RBD蛋白 (SARS-CoV-2, UniProt P0DTC2 319-541).
In the next test the target is SARS-CoV-2野生型病毒的S蛋白 (SARS-CoV-2, UniProt P0DTC2 14-1273). Nature of the test: cell-based or functional assay.

One molecule from patent CN113735969A (INST MILITARY MEDICINE ACADEMY MILITARY SCIENCES PLA, dated 2021) can be followed below.

B1: 全人源抗SARS-CoV-2单克隆抗体ZWD12 (antibody, V domains shown)
VH: EVQLVESGGGLVQPGGTLRLSCVASGFSFSNYWMSWVRQAPGKGLEWVANIKQDGSETHYVDSVKGRFTISRDNAKNSLYLQMNSLRADDTAVYFCVKDRTDWELIRGYFGHWGQGTQITVSS
VL: DIVMTQTPSSLSLSPGDRATLSCRASENIINYLAWYQQRPGQSPRLLIYDASNRATGIPARFSGSGSGTDFTLTISSLEPEDFAVYYCQQRIIWPPYTFGQGTKVDIKR
A word on the Kd: it is a measure of binding affinity in units of concentration. As usually defined, the koff is the first-order rate constant of dissociation. Lower therefore signals slow dissociation. Broadly, the kon is the rate constant with which the complex forms. Low values mean slower complex formation, high ones faster complex formation. In the test with SARS-CoV-2 WT RBD蛋白, B1 showed a Kd of 0.356 nM, a koff of 0.000167 s⁻¹ and a kon of 468000 M⁻¹ s⁻¹. In the test with SARS-CoV-2野生型病毒的S蛋白, the “假病毒中和 EC50 (luciferase, HEK293T cells)” value stood at 0.00586 µg/mL and the “真病毒中和 EC50 (Vero E6 cells, crystal violet)” value was found to be 0.103 µg/mL.
